# Source: article PMC9482650, “Quantitative fragmentomics allow affinity mapping of interactomes” (Nature Communications, 2022)
# T1: APBA2_1, Q99767
# T1 sequence (Q99767 563-664, limits assumed, looked up): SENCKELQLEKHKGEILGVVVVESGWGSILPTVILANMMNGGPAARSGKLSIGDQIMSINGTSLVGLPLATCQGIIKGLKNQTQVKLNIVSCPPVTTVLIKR
# T2: APBA3_1, O96018
# T2 sequence (O96018 389-490, limits assumed, looked up): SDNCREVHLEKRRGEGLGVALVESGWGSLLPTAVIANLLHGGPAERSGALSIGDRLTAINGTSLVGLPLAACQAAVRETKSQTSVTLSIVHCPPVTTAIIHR
# T3: DFNB31_2, Q9P202
# T3 sequence (Q9P202 274-371, limits assumed, looked up): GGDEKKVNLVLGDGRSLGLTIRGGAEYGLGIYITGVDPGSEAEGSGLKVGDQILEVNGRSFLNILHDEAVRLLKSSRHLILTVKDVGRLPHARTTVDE
# T4: DVL3, Q92997
# T4 sequence (Q92997 244-331, limits assumed, looked up): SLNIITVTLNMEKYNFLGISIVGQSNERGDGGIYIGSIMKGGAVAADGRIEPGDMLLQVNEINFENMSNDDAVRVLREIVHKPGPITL
# T5: HTRA3, P83110
# T5 sequence (P83110 354-453, limits assumed, looked up): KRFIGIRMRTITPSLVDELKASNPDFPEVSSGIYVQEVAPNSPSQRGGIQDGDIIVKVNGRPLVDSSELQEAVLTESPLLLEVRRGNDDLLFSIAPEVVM
# T6: NHERF3_3, Q5T2W1
# T6 sequence (Q5T2W1 238-333, limits assumed, looked up): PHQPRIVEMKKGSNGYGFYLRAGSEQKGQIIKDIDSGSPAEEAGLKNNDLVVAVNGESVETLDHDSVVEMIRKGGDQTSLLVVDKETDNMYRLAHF
# T7: PARD3B_1, Q8TEW8
# T7 sequence (Q8TEW8 196-299, limits assumed, looked up): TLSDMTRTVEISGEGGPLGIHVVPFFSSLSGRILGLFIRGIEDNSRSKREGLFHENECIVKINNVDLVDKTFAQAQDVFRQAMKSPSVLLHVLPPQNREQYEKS
# T8: PDZD7_3, Q9H5P4
# T8 sequence (Q9H5P4 857-944, limits assumed, looked up): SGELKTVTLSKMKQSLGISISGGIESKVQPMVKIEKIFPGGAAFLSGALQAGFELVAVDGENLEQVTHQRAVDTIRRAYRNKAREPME
# T9: SIPA1L2, Q9P2F8
# T9 sequence (Q9P2F8 945-1036, limits assumed, looked up): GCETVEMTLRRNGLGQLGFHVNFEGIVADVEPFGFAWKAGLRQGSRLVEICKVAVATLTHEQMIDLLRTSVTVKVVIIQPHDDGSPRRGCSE
# T10: SNTA1, Q13424
# T10 sequence (Q13424 82-180, limits assumed, looked up): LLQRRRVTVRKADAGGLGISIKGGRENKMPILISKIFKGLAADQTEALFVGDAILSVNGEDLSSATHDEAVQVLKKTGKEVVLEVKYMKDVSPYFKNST
# T11: SNTG1, Q9NSN8
# T11 sequence (Q9NSN8 52-150, limits assumed, looked up): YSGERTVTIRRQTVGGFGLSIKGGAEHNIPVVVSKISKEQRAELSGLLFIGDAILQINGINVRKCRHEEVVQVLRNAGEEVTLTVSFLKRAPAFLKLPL
# T12: TJP3_3, O95049
# T12 sequence (O95049 375-456, limits assumed, looked up): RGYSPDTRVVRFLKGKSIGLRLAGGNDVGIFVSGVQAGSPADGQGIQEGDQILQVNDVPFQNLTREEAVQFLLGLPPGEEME
# B1: KIF17, Q9P2E2 (peptide)
# chain: SKSNFGSEPL
# B2: MYOZ3, Q8TDC0 (peptide)
# chain: VRNLPESEEL
# Biological target: T1, APBA2_1, Q99767
# Experiment: holdup assay
# Design: key: below the threshold = too weak to quantify, mostly under pKd 3.1 to 4
# Conditions: plain residues with an end cap or a label only (N-terminal biotin on a linker: ado-ado)
row,Binder,pKd
1,B1,below the threshold
2,B2,below the threshold

# Biological target: T2, APBA3_1, O96018
# Experiment: holdup assay
# Design: key: below the threshold = too weak to quantify, mostly under pKd 3.1 to 4
# Conditions: plain residues with an end cap or a label only (N-terminal biotin on a linker: ado-ado)
row,Binder,pKd
1,B1,below the threshold
2,B2,below the threshold

# Biological target: ARHGEF12, Q9NZN5-2
# Experiment: holdup assay
# Design: key: below the threshold = too weak to quantify, mostly under pKd 3.1 to 4
# Conditions: plain residues with an end cap or a label only (N-terminal biotin on a linker: ado-ado)
# Chain of ARHGEF12, Q9NZN5-2 (Q9NZN5 other isoform, or with tags, fused parts or gaps): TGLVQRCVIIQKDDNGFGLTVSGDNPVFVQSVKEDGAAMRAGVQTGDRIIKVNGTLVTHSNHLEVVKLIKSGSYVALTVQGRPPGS
row,Binder,pKd
1,B1,below the threshold
2,B2,below the threshold

# Biological target: CASK, O14936
# Experiment: holdup assay
# Design: key: below the threshold = too weak to quantify, mostly under pKd 3.1 to 4
# Conditions: plain residues with an end cap or a label only (N-terminal biotin on a linker: ado-ado)
# Chain of CASK, O14936 (O14936 487-570): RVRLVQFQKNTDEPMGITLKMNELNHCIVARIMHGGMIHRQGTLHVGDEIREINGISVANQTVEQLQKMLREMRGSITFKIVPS
row,Binder,pKd
1,B1,below the threshold
2,B2,below the threshold

# Biological target: T3, DFNB31_2, Q9P202
# Experiment: holdup assay
# Design: key: below the threshold = too weak to quantify, mostly under pKd 3.1 to 4
# Conditions: plain residues with an end cap or a label only (N-terminal biotin on a linker: ado-ado)
row,Binder,pKd
1,B1,below the threshold
2,B2,below the threshold

# Biological target: DLG2_2, Q15700
# Experiment: holdup assay
# Design: key: below the threshold = too weak to quantify, mostly under pKd 3.1 to 4
# Conditions: plain residues with an end cap or a label only (N-terminal biotin on a linker: ado-ado)
# Chain of DLG2_2, Q15700 (Q15700 189-283): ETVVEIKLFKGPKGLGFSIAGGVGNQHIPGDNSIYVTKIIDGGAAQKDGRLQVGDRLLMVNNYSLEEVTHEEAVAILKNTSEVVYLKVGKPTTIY
row,Binder,pKd
1,B1,below the threshold
2,B2,below the threshold

# Biological target: T4, DVL3, Q92997
# Experiment: holdup assay
# Design: key: below the threshold = too weak to quantify, mostly under pKd 3.1 to 4
# Conditions: plain residues with an end cap or a label only (N-terminal biotin on a linker: ado-ado)
row,Binder,pKd
1,B1,below the threshold
2,B2,below the threshold

# Biological target: GORASP1, Q9BQQ3
# Experiment: holdup assay
# Design: key: below the threshold = too weak to quantify, mostly under pKd 3.1 to 4
# Conditions: plain residues with an end cap or a label only (N-terminal biotin on a linker: ado-ado)
# Chain of GORASP1, Q9BQQ3 (Q9BQQ3 1-208): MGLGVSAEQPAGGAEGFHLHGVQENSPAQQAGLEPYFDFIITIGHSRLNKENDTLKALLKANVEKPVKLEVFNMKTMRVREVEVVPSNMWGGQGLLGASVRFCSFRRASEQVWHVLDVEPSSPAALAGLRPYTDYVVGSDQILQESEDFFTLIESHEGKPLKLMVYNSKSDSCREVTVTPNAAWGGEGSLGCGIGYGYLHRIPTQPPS
row,Binder,pKd
1,B1,below the threshold
2,B2,below the threshold

# Biological target: GRIP2_3, Q9C0E4
# Experiment: holdup assay
# Design: key: below the threshold = too weak to quantify, mostly under pKd 3.1 to 4
# Conditions: plain residues with an end cap or a label only (N-terminal biotin on a linker: ado-ado)
# Chain of GRIP2_3, Q9C0E4 (Q9C0E4 238-339): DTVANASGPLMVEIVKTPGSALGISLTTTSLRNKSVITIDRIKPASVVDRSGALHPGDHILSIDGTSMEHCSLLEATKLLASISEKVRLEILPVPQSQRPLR
row,Binder,pKd
1,B1,below the threshold
2,B2,below the threshold

# Biological target: GRIP2_7, Q9C0E4
# Experiment: holdup assay
# Design: key: below the threshold = too weak to quantify, mostly under pKd 3.1 to 4
# Conditions: plain residues with an end cap or a label only (N-terminal biotin on a linker: ado-ado)
# Chain of GRIP2_7, Q9C0E4 (Q9C0E4 934-1023): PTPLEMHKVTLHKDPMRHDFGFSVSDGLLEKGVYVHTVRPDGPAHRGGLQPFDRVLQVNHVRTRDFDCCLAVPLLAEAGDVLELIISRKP
row,Binder,pKd
1,B1,below the threshold
2,B2,below the threshold

# Biological target: T5, HTRA3, P83110
# Experiment: holdup assay
# Design: key: below the threshold = too weak to quantify, mostly under pKd 3.1 to 4
# Conditions: plain residues with an end cap or a label only (N-terminal biotin on a linker: ado-ado)
row,Binder,pKd
1,B1,below the threshold
2,B2,below the threshold

# Biological target: LIMK2, P53671
# Experiment: holdup assay
# Design: key: below the threshold = too weak to quantify, mostly under pKd 3.1 to 4
# Conditions: plain residues with an end cap or a label only (N-terminal biotin on a linker: ado-ado)
# Chain of LIMK2, P53671 (P53671 143-248): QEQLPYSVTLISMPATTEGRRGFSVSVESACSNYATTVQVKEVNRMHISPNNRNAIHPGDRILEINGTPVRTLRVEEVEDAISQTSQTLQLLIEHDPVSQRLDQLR
row,Binder,pKd
1,B1,below the threshold
2,B2,below the threshold

# Biological target: MAGI1_2, Q96QZ7
# Experiment: holdup assay
# Design: key: below the threshold = too weak to quantify, mostly under pKd 3.1 to 4
# Conditions: plain residues with an end cap or a label only (N-terminal biotin on a linker: ado-ado)
# Chain of MAGI1_2, Q96QZ7 (Q96QZ7 456-580): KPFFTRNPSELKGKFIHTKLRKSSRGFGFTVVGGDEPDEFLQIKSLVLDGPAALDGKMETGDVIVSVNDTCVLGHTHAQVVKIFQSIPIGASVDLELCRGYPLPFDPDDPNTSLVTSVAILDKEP
row,Binder,pKd
1,B1,below the threshold
2,B2,below the threshold

# Biological target: T6, NHERF3_3, Q5T2W1
# Experiment: holdup assay
# Design: key: below the threshold = too weak to quantify, mostly under pKd 3.1 to 4
# Conditions: plain residues with an end cap or a label only (N-terminal biotin on a linker: ado-ado)
row,Binder,pKd
1,B1,below the threshold
2,B2,below the threshold

# Biological target: NHERF4_2, Q86UT5
# Experiment: holdup assay
# Design: key: below the threshold = too weak to quantify, mostly under pKd 3.1 to 4
# Conditions: plain residues with an end cap or a label only (N-terminal biotin on a linker: ado-ado)
# Chain of NHERF4_2, Q86UT5 (Q86UT5 220-308): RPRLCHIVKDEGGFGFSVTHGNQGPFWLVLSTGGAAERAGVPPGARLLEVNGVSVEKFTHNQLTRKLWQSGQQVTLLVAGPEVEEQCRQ
row,Binder,pKd
1,B1,below the threshold
2,B2,below the threshold

# Biological target: T7, PARD3B_1, Q8TEW8
# Experiment: holdup assay
# Design: key: below the threshold = too weak to quantify, mostly under pKd 3.1 to 4
# Conditions: plain residues with an end cap or a label only (N-terminal biotin on a linker: ado-ado)
row,Binder,pKd
1,B1,3.65
2,B2,3.58

# Biological target: PARD3_3, Q8TEW0
# Experiment: holdup assay
# Design: key: below the threshold = too weak to quantify, mostly under pKd 3.1 to 4
# Conditions: plain residues with an end cap or a label only (N-terminal biotin on a linker: ado-ado)
# Chain of PARD3_3, Q8TEW0 (Q8TEW0 582-685): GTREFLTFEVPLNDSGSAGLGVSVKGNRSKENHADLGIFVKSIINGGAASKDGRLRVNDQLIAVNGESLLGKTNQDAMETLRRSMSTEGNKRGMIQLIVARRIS
row,Binder,pKd
1,B1,below the threshold
2,B2,below the threshold

# Biological target: T8, PDZD7_3, Q9H5P4
# Experiment: holdup assay
# Design: key: below the threshold = too weak to quantify, mostly under pKd 3.1 to 4
# Conditions: plain residues with an end cap or a label only (N-terminal biotin on a linker: ado-ado)
row,Binder,pKd
1,B1,below the threshold
2,B2,3.74

# Biological target: SCRIB_1, Q14160
# Experiment: holdup assay
# Design: key: below the threshold = too weak to quantify, mostly under pKd 3.1 to 4
# Conditions: plain residues with an end cap or a label only (N-terminal biotin on a linker: ado-ado)
# Chain of SCRIB_1, Q14160 (Q14160 718-814): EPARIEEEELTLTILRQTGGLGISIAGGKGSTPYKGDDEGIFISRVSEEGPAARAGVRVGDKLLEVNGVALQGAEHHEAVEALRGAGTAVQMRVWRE
row,Binder,pKd
1,B1,below the threshold
2,B2,below the threshold

# Biological target: SCRIB_3, Q14160
# Experiment: holdup assay
# Design: key: below the threshold = too weak to quantify, mostly under pKd 3.1 to 4
# Conditions: plain residues with an end cap or a label only (N-terminal biotin on a linker: ado-ado)
# Chain of SCRIB_3, Q14160 (Q14160 999-1103): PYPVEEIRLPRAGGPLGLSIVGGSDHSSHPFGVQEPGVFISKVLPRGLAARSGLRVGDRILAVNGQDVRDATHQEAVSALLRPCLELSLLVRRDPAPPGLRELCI
row,Binder,pKd
1,B1,below the threshold
2,B2,below the threshold

# Biological target: T9, SIPA1L2, Q9P2F8
# Experiment: holdup assay
# Design: key: below the threshold = too weak to quantify, mostly under pKd 3.1 to 4
# Conditions: plain residues with an end cap or a label only (N-terminal biotin on a linker: ado-ado)
row,Binder,pKd
1,B1,below the threshold
2,B2,below the threshold

# Biological target: T10, SNTA1, Q13424
# Experiment: holdup assay
# Design: key: below the threshold = too weak to quantify, mostly under pKd 3.1 to 4
# Conditions: plain residues with an end cap or a label only (N-terminal biotin on a linker: ado-ado)
row,Binder,pKd
1,B1,below the threshold
2,B2,3.57

# Biological target: T11, SNTG1, Q9NSN8
# Experiment: holdup assay
# Design: key: below the threshold = too weak to quantify, mostly under pKd 3.1 to 4
# Conditions: plain residues with an end cap or a label only (N-terminal biotin on a linker: ado-ado)
row,Binder,pKd
1,B1,below the threshold
2,B2,below the threshold

# Biological target: TJP1_2, Q07157
# Experiment: holdup assay
# Design: key: below the threshold = too weak to quantify, mostly under pKd 3.1 to 4
# Conditions: plain residues with an end cap or a label only (N-terminal biotin on a linker: ado-ado)
# Chain of TJP1_2, Q07157 (Q07157 181-274): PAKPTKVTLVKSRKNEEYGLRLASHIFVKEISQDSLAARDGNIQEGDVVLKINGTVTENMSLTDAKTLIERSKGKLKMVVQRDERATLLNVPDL
row,Binder,pKd
1,B1,below the threshold
2,B2,below the threshold

# Biological target: TJP2_1, Q9UDY2
# Experiment: holdup assay
# Design: key: below the threshold = too weak to quantify, mostly under pKd 3.1 to 4
# Conditions: plain residues with an end cap or a label only (N-terminal biotin on a linker: ado-ado)
# Chain of TJP2_1, Q9UDY2 (Q9UDY2 24-128): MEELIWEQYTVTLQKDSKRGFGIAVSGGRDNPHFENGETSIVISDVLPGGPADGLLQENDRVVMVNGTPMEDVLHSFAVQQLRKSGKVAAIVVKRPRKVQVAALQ
row,Binder,pKd
1,B1,below the threshold
2,B2,below the threshold

# Biological target: T12, TJP3_3, O95049
# Experiment: holdup assay
# Design: key: below the threshold = too weak to quantify, mostly under pKd 3.1 to 4
# Conditions: plain residues with an end cap or a label only (N-terminal biotin on a linker: ado-ado)
row,Binder,pKd
1,B1,below the threshold
2,B2,below the threshold
